Where two headings read alike, the source gives them in different places. Values belong to the binder of their own block, whether it stands above or below them.
Key:
[1] = biological target: T1, human 4-1BB on CHO-K1 cells (human, UniProt Q07011 24-255); test: FACS
Target sequence in this assay (Q07011 24-255): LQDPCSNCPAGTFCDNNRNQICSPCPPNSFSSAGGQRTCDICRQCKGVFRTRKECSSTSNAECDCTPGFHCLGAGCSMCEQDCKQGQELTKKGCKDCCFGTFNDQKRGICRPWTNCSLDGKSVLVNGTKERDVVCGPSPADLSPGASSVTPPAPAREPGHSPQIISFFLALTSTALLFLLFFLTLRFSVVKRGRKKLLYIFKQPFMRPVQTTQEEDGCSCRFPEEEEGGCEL

[2] = biological target: T2, cynomolgus monkey 4-1BB on CHO-K1 cells (cynomolgus monkey); test: FACS; FIG. 12A
T2 chain: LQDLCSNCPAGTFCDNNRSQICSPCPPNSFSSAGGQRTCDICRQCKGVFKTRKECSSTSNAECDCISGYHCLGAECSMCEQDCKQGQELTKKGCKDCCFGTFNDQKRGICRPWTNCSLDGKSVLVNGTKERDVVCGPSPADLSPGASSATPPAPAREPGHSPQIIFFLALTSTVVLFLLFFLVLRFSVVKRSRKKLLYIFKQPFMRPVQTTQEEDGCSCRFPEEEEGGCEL

[3] = biological target: T1, human 4-1BB on CHO-K1 cells; test: FACS blocking of 4-1BBL
Target sequence in this assay (Q07011 24-255): as the sequence (Q07011 24-255) above

[4] = biological target: T1, human 4-1BB on CHO-K1 cells; test: FACS; remark: listed apart in the source
[5] = biological target: T2, cynomolgus monkey 4-1BB on CHO-K1 cells; test: FACS; FIG. 12D
[6] = biological target: T2, cynomolgus monkey 4-1BB on CHO-K1 cells; test: FACS; FIG. 12B
[7] = biological target: T1, human 4-1BB on CHO-K1 cells; test: FACS; remark: listed apart in the source
Target sequence in this assay (Q07011 24-255): as the sequence (Q07011 24-255) above

[8] = biological target: T2, cynomolgus monkey 4-1BB on CHO-K1 cells; test: FACS; FIG. 12E
[9] = biological target: T1, human 4-1BB on CHO-K1 cells; test: FACS blocking of 4-1BBL; remark: listed apart in the source
Target sequence in this assay (Q07011 24-255): as the sequence (Q07011 24-255) above

[10] = biological target: T2, cynomolgus monkey 4-1BB on CHO-K1 cells; test: FACS; FIG. 12J
[11] = biological target: T1, human 4-1BB on CHO-K1 cells; test: FACS; FIG. 11K
Target sequence in this assay (Q07011 24-255): as the sequence (Q07011 24-255) above

[12] = biological target: T1, human 4-1BB on CHO-K1 cells; test: FACS blocking of 4-1BBL; remark: listed apart in the source
Target sequence in this assay (Q07011 24-255): as the sequence (Q07011 24-255) above

[13] = biological target: T2, cynomolgus monkey 4-1BB on CHO-K1 cells; test: FACS; FIG. 12L
[14] = biological target: T1, human 4-1BB on CHO-K1 cells; test: FACS; FIG. 11M
[15] = biological target: T2, cynomolgus monkey 4-1BB on CHO-K1 cells; test: FACS; FIG. 12F

B1: PR001758 (antibody, V domains shown)
VH: EVQLLESGGGLVQLGGSLRLSCAASGFTFSRYAMTWVRQAPEKGLEWVSSISGSGDDTYYGDSVKGRFTISRDNSQNTVYLQMNSLRAEDTAVYFCAKEKAGTTGDYYYNVDVWGQGTTVTVSS
EC50 [1]: 0.212 nM
EC50 [2]: 0.575 nM
IC50 [3]: 3.61 nM

B2: PR001781 (antibody, V domains shown)
VH: EVQLLESGGGLVQLGGSLRLSCAASGFTFSSYAMTWVRQAPEKGLEWVSSISGSGGNTYYADSVKGRFTISRDNSKNTLYLQMNSLRAEDTAVYYCAKERTGTTGDYYYNVDVWGQGTTVTVSS
EC50 [4]: 0.492 nM
EC50 [5]: 3.1 nM

B3: PR001759 (antibody, V domains shown)
VH: EVQLLESGGGLVQPGGSLRLSCAASGFTFSSYAMSWFRQPPETGLQWVSSIGGSGGDTYYADSVKGRFTISRDNSKNTLYLQMNSLRAEDTAVYYCAKEGSNGTDDNYYDVDVWGQGTTVTVSS
EC50 [1]: 0.274 nM
EC50 [2]: 0.788 nM
IC50 [3]: 2.31 nM

B4: PR001767 (antibody, V domains shown)
VH: EVQLVETGGGLIQPGGSLRLSCAASGFTVSSNYMSWVRQAPGKGLEWVSVIYSDGSTYYADSVKGRFTISRDNSKNTLYLQMNSLRAEDTAVYYCARDRYYGSGNYPTAYYGMDVRGQGTTVTVSS
EC50 [4]: 5.87 nM
EC50 [6]: 25 nM

B5: PR001764 (antibody, V domains shown)
VH: EVQLLESGGGLVQPGGSLRLSCAASGFTFSSYAMSWVRQAPEKGLEWVSAISGGGGSTYYADSVKGRFTISRDNSKNTLYLQMDSLKAEDTAVYYCAKEGTTETDDYHYNMDVWGQGTTVTVSS
EC50 [4]: 0.249 nM
EC50 [6]: 5.33 nM
IC50 [3]: 2.79 nM

B6: PR001834 (antibody, V domains shown)
VH: EVQLLESGGGLVQPGGSLRLSCAASGFTFSGYAMTWVRQPPEKGLEWVSSISGSGNNTFYADSVKGRFTISRDNSKNTLYLQMNSLRAEDTAVYYCAKEGTTETDDYHYNMDVWGQGTTVTVSS
EC50 [7]: 0.449 nM
EC50 [8]: 3.46 nM
IC50 [9]: 2.93 nM

B7: PR001775 (antibody, V domains shown)
VH: EVQLLESGGGLVQSGGSLRLSCAASGFTFSSYAMSWVRQAPGKGLEWVSAISGSGGSTDYADSVKGRFTISRDNSTNTLYLQMNSLRAEDTAVYYCAKERAYDYSNYVDFDYWGQGTLVTVSS
EC50 [4]: 0.477 nM
EC50 [5]: 2.66 nM
IC50 [9]: 2.4 nM

B13: PR001776 (antibody, V domains shown)
VH: EVQLLESGGGLVQPGGSLRLSCAASGFTFSSYAMSWVRQAPEKGLEWVSAISSSGGSTYYADSVKGRFTISRDNSKNTLYLQMNSLRAEDTAVYYCAKDGVTTPSYYYYYDMDVWGQGTTVTVSS
EC50 [4]: 2.43 nM
EC50 [5]: 18.1 nM
IC50 [9]: 10.9 nM

B14: PR001831 (antibody, V domains shown)
VH: EVQLVESGGGVIQPGGSLRLSCEASGFTFSSYAMSWVRQAPEKGLEWVSSISGSGDSTYYADSVKGRFTISRDNSKNTLYLQMNSLRAEDTAGYHCAKEGSNGTDDYHYDIDVWGQGTSVTVSS
EC50 [8]: 2.58 nM
IC50 [9]: 4.05 nM

B16: PR001780 (antibody, V domains shown)
VH: EVQLLESGGGLIQPGGSLRLSCAASGFTFSSFAMTWVRQAPGKGLEWVSTISGSGDNTYYADSVKGRFTISRDNSKNTLYLQMNSLRAEDTAVYFCAKEDTAVASDYYYNIDVWGQGTTVTVSS
EC50 [4]: 0.708 nM
EC50 [5]: 2.99 nM
IC50 [9]: 6.33 nM

B17: PR001766 (antibody, V domains shown)
VH: EVQLLESGGGLVQPGGSLRLSCAASGFTFSSYAMSWGRQAPGKGLEWVSSISGSGGSTYYADSVKGRFTISRDNSKNTLYLQMNSLRAEDTAVYYCAKEKTGTTGDYYYDMDVWGQGTTVTVSS
EC50 [4]: 0.399 nM
EC50 [6]: 4.99 nM
IC50 [3]: 4.34 nM

B19: PR001830 (antibody, V domains shown)
VH: EVQLLESGGGLVQPGGSLRLSCTASGFTFSNYAMSWVRQAPEKGLEWVSSISGSGGSTFYADSVKGRFTISRDNSKNTLYLQMNSLRAEDTAVYFCAKEGSSETDDHYYNVDVWGQGTTVTVSS
EC50 [7]: 0.209 nM
EC50 [8]: 0.899 nM
IC50 [9]: 2.32 nM

B20: PR001763 (antibody, V domains shown)
VH: EVQLLESGGGLVQPGGSLRLSCTASGFTFSNYAMSWVRQAPEKGLEWVSSISGSGGSTFYADSVKGRFTISRDNSKNTLYLQMNRLTAEDTAVYYCAKEGSNGTDDYHYDIDVWGQGTTVTVSS
EC50 [1]: 0.616 nM
EC50 [6]: ~0.411 nM
IC50 [3]: 4.99 nM

B21: PR001760 (antibody, V domains shown)
VH: EVQLVESGGGVVQPGGSLRLSCAASGFTFSNYAMTWVRQAPEKGLEWVSSISGSGVSTYYADSVKGRFTISRDNSKNTLYLQMTRLTAEDTAVYFCAKEGSSETDDHYYNVDVWGQGTTVTVSS
EC50 [1]: 0.198 nM
EC50 [2]: 0.443 nM
IC50 [3]: 2.05 nM

B22: PR001833 (antibody, V domains shown)
VH: EVQLLESGGGLVQPGGSLRLSCAASGFTFSSYAMSWVRQAPEKGLEWVSSISGSGGSTFYADSVKGRFTISRDNSKNTLYLQMNSLRAEDTAVYFCAKEGATETDDYHFNTDVWGQGTTVTVSS
EC50 [7]: 0.21 nM
EC50 [8]: 1.02 nM
IC50 [9]: 2.31 nM

Next, values leading:

EC50 [10]: 4.88 nM
EC50 [11]: 1.81 nM
IC50 [12]: 5.37 nM
B8: PR007292 (antibody, V domains shown)
VH: EVQLVESGGGLVKPGGSLRLSCAASGFTFSDYYMSWIRQAPGKGLEWVSYISSSGSTIDYADSVKGRFTISRDNAKNSLYLQMNSLRAEDTAVYYCAREREEVAGTLDYDNWGQGTLVTVSS

EC50 [13]: 2.33 nM
EC50 [14]: 3.71 nM
IC50 [12]: 6.7 nM
B9: PR007298 (antibody, V domains shown)
VH: EVQLVESGGGLVKPGGSLRLSCAASGFTFSDYYMSWVRQAPGKGLEWVSYISSSGSTIDYADSVKGRFTISRDNAKNSLFLEMNSLRAEDTAVYYCAREREEVAGTLDFDNWGQGTLVTVSS

EC50 [10]: 1.99 nM
EC50 [11]: 1.14 nM
IC50 [12]: 6.61 nM
B10: PR007294 (antibody, V domains shown)
VH: EVQLVESGGGLVKPGGSLRLSCVASGFTFSDYYMSWFRQAPGKGLEWVSYISGSGTTIDYADSVKGRFTISRDNAKNSLYLQMNSLRAEDTAVYYCAREREPVAGTLDFDNWGQGTLVTVSS

EC50 [10]: 2.1 nM
EC50 [11]: 2.25 nM
IC50 [12]: 11.2 nM
B11: PR007293 (antibody, V domains shown)
VH: EVQLVESGGGLVKPGGSLRLSCAASGFTFSDYYMSWFRQAPGKGLEWVSYINSSGSTIYYEYSVKGRFTISRDNAKNSLYLQMNSLRAEDTAVYYCAREREEVAGTLDFDYWGQGTLVTVSS

EC50 [7]: 0.28 nM
EC50 [8]: 2.41 nM
IC50 [9]: 2.12 nM
B12: PR001836 (antibody, V domains shown)
VH: EVQLLESGGGLVQPGGSLRLSCAASGFIFSNFAMTWVRQPPEKGLKWVSSINGSGFNTYYTDSVKGRFTISRDNSRNTLYLQMNRLTAEDTAVYFCAKEGSSETDDHYYNVDVWGQGTTVTVSS

EC50 [13]: 118 nM
EC50 [14]: 17 nM
IC50 [12]: 23.1 nM
B15: PR007299 (antibody, V domains shown)
VH: EVQLVESGGGLVKPGGSLRLSCAASGFTFSDYQMSWLRQAPGKGLEWVSYISSSGRTIYYADSVKGRFTISRDNAKNSVSLQMNSLRAEDTAVYYCAREGRFFPGQGTPVTVSS

EC50 [7]: 0.537 nM
EC50 [15]: 2.29 nM
B18: PR001842 (antibody, V domains shown)
VH: EVQLLESGGGLVQPGGSLRLSCAASGFTFSSYAMSWGRQAPGKGLEWVSAISGSGGSTYYADSVKGRFTISRDNSKNTLYLHMNSLRAEDTAVYYCAKEKVATTGDYYYDMDVWGQGTTVTVSS

EC50 [13]: 1.94 nM
EC50 [14]: 2.77 nM
IC50 [12]: 2.87 nM
B23: PR007300 (antibody, V domains shown)
VH: EVQLVESGGGLVKPGGSLRLSCTTSGFTFSDYYMNWVRQAPGKGLEWVSYISNNGSTIYYADSVKGRFTISRDNAKNSLYLQMNSLRAEDTAVYYCARVRPGGSGNYWDWFDPWGQGTPVTVSS
